Laboratory results published in PMC3616741.

Each binder was assayed against T1, U2AF65 1,2 (RRM1-RRM2, wild-type linker) (Homo sapiens, UniProt P26368 148-336) (assay: SPR).
T1 sequence (P26368 148-336, one chain of several): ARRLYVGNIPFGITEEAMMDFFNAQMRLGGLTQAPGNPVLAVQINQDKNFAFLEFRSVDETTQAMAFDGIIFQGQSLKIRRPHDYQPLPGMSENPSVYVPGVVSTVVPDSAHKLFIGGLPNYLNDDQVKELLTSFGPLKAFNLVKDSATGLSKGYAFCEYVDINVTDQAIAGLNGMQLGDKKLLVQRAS
Work on CCCUUUCUCCUCC (ssRNA) [rC(7,9,10)] yielded a Kd of 11.6 ± 0.8 µM.
CCCCCCUUUUUCC (ssRNA) [3'-5rU] showed a Kd of 45.2 ± 3.4 µM.
Work on UUUUUUUUUUUUU (ssRNA) [rU13] yielded a Kd of 13.1 ± 0.9 µM.
CCCUUUUUCUUCC (ssRNA) [rC(9)] was tested, and the Kd was 13.7 ± 1.3 µM.
With CCCUUUUUUCUCC (ssRNA) [rC(10)] the Kd was 11.9 ± 0.8 µM.
Work on CCCUUUCUUCUCC (ssRNA) [rC(7,10)] yielded a Kd of 14.5 ± 0.9 µM.
CCCCCCCUUUUCC (ssRNA) [3'-4rU] gave a Kd of 69.4 ± 3.1 µM.
CCCCCCCCUUUCC (ssRNA) [3'-3rU] was tested, and the Kd was 89.5 ± 3.9 µM.
With CCUUUUUCCCCCC (ssRNA) [5'-5rU] the Kd was 14.4 ± 0.8 µM.
CCCUCUUUUUUCC (ssRNA) [rC(5)] was tested, and the Kd was 13.9 ± 1 µM.
Work on CCUCUCUUCCCCC (ssRNA) [rU(3)C(4,6,9,10,11)] yielded a Kd of 14.4 ± 1.1 µM.
Work on CCCUUUCUUUUCC (ssRNA) [rC(7)] yielded a Kd of 9.3 ± 0.4 µM.
CCUUUCCCCCCCC (ssRNA) [5'-3rU] gave a Kd of 22 ± 0.9 µM.
In the case of CCUUUUCCCCCCC (ssRNA) [5'-4rU], the Kd is reported as 14.3 ± 0.6 µM.
CCCCCUUCUCUCC (ssRNA) [rC(4,5,8,10)] gave a Kd of 27.9 ± 1.3 µM.
For CCCUUUCUCUUCC (ssRNA) [rC(7,9)], the Kd was 11 ± 0.6 µM.

What follows are binders tested against U2AF65 1,2 MUT (Homo sapiens, UniProt P26368 148-336, D293N;K329Q;L331K;Q333E) (assay: SPR).
U2AF65 1,2 MUT, sequence (P26368 148-336 D293N/K329Q/L331K/Q333E, one chain of several): as the sequence (P26368 148-336, one chain of several) above, with D146N, K182Q, L184K, Q186E counted along it
For CCCCCCCUUUUCC (ssRNA) [3'-4rU], the Kd was 12.5 ± 1.3 µM.
With CCUUUUCCCCCCC (ssRNA) [5'-4rU] the Kd was 14 ± 1.6 µM.

Biological target: T1, U2AF65 1,2 (RRM1-RRM2, wild-type linker)
Assay: SPR
Remark: another data set of the same source
In the case of CCCUUUUUUUUCC (ssRNA) [rAdML13], the Kd is reported as 12.5 ± 1.6 µM.
